Assay results published in patent US20020199219A1 (UNIVERSITY OF CALIFORNIA SAN DIEGO, published 2002).

Biological target: T1, ABH1 polypeptide (Arabidopsis thaliana, UniProt Q9SIU2 1-848)
T1 construct: Tested in a yeast two-hybrid experiment and expressed in yeast cells; also called Arabidopsis CBP80 homolog
T1 sequence: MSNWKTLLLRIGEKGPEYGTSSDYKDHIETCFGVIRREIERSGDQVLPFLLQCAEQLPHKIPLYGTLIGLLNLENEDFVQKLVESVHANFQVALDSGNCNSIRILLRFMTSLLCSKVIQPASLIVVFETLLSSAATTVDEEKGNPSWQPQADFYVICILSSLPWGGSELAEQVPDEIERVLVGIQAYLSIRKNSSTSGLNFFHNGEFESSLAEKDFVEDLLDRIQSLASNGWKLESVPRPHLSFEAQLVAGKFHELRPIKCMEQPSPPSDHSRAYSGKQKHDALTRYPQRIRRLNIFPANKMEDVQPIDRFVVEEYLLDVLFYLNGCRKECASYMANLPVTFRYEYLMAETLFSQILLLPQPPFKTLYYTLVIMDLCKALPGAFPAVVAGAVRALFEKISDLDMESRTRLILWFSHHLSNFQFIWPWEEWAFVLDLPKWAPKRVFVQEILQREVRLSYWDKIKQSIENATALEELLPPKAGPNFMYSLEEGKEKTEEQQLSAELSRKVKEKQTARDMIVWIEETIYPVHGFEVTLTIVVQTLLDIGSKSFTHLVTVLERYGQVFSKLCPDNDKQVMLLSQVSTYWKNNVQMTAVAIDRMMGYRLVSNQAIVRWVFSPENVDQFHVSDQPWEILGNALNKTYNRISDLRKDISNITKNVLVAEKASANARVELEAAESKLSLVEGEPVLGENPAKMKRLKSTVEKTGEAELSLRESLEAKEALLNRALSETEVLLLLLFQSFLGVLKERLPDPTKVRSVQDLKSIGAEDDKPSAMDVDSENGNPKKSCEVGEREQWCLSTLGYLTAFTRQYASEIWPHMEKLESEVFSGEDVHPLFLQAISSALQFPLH
Experiment: yeast two-hybrid

B1: Arabidopsis CBP20 homolog (AtCBP20) (other, UniProt Q9XFD1 1-257, looked up)
chain: MASLFKEQAKLSAYRDRRFSGTQEEFDEALRASTTVYIGNVSFYTTEEQLYELFSRAGEIKKIIMGLDKNTKTPCGFCFVLFYSREDTEDAVKYISGTILDDRPIRVDFDWGFQEGRQWGRGRSGGQVRDEYRTDYDPARGGYGKLVQKELEAQRQLVDYGTGSLGAYPQAAPTNYGNGRRGGGNYGQGGQNRHGRGDYHRKRQRDDDRYGRDNSRRNTDHESRRDTDSDMRPEKNPRFRESGDSDDDGEDDRKRRS
notes: The limits of the construct and the two-hybrid fusion domains are not described
binding result: binds
